Results taken from article PMC1865072 (Nucleic Acids Research, 2007).
Read-outs that look alike come from different tables or passages of the source.

Legend:
Assay in all cases: native MS
[1] = target: 15N-labelled Kis antitoxin (Killing suppressor) of the parD operon of plasmid R1 (Escherichia coli (plasmid R1))
[2] = target: 15N-labelled Kis antitoxin (Killing suppressor) of the parD operon of plasmid R1 (Escherichia coli (plasmid R1)); remark: listed apart in the source
native MS = target: the molecule itself

15N-labelled Kis antitoxin (Killing suppressor) of the parD operon of plasmid R1 (Escherichia coli (plasmid R1)), sequence (P13975 whole entry): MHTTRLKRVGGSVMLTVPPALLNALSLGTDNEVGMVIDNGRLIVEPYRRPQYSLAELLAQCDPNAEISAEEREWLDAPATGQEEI

15N-labelled Kis antitoxin (Killing suppressor) of the parD operon of plasmid R1 (natural protein)
stoichiometry N (subunits in the oligomer) [1]: 2

Kid toxin (Killing determinant) of the parD operon of plasmid R1 (from UniProt P13976 24-133) (natural protein)
stoichiometry N (Kid per Kis (2:1)) [1]: 2
stoichiometry N (Kid per Kis (4:2)) [1]: 2
stoichiometry N (Kid per Kis (2:1)) [2]: 2
stoichiometry N (Kid per Kis (2:2)) [2]: 1
stoichiometry N (Kid per Kis (4:2)) [2]: 2
stoichiometry N (Kid per Kis (4:4)) [2]: 1
stoichiometry N (Kid per Kis (4:6), on the 30-bp parD DNA) [2]: 0.67

B1: Kid toxin (Killing determinant) of the parD operon of plasmid R1 (natural protein)
chain: MERGEIWLVSLDPTAGHEQQGTRPVLIVTPAAFNRVTRLPVVVPVTSGGNFARTAGFAVSLDGVGIRTTGVVRCDQPRTIDMKARGGKRLERVPETIMNEVLGRLSTILT
stoichiometry N (native MS): 2 subunits in the oligomer
